Source: the supplement of paper PMC9170038

Tested on: MS2 coat protein
Test: apparent KD of MS2 coat protein; designed switch direction (-1 OFF switch, 1 ON switch): -1; higher = weaker reporter binding
In short: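 On Illumina chips, designed RNA switches with common flanks were made by stalled E. coli RNA polymerase. Titrations with SNAP-549-labelled MS2 coat protein, doubling from 0.7 or 1.5 nM to 3 µM, were done with no input, with 200 uM small-molecule ligand, or with an oligonucleotide input. Apparent KD is the median per design over clusters, from curve fits of normalised cluster fluorescence.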

[1] = Eterna round: R95, input ligand: FMN 200 uM
[2] = Eterna round: R95, input ligand: microRNA oligo, concentration not stated
[3] = Eterna round: R95, input ligand: none
[4] = input ligand: microRNA oligo, concentration not stated

Row | Sequence | apparent KD of MS2 coat protein (input ligand: FMN 200 uM) | apparent KD of MS2 coat protein (input ligand: none) | apparent KD of MS2 coat protein [1] | apparent KD of MS2 coat protein [2] | apparent KD of MS2 coat protein [3] | apparent KD of MS2 coat protein [4]
1 | AUUAGUAAUAAGGAUAUCACUAGCCUCGGCUAGUGAGAAGGUAUUACAUGAGGAUCACCCAUGUGAUCAAUUAA [E6/3-A2] (Eterna round: R97, puzzle: Exclusion 6) | 287 nM | 474 nM | – | – | – | –
2 | CUUAGACAUGAGGAUCACCCAUGUGAGGAUAUGAAAUUAAUUAAUUAUUAAUUAUGAAUCAGAAGGCACAUAUG [Mat - Mod of Hyphema D37] (puzzle: Exclusion 1) | – | – | 121 nM | 47.9 nM | 50.9 nM | –
3 | CGUAUCUUUCACGUGAGUAGUGGGUGCAACAGGUGGGUUACAUGAGGAUCACCCAUGUCCUCACUUGCUCGUCUUAU [Grok-var2-05] (puzzle: Sensor v3, turn-off variant 2) | – | – | 37.8 nM | 124 nM | 37.5 nM | –
4 | CGCAUGUGAGGAUAUUAGUAGUAGUCAGAAUAGACUAUUACUGAGAAGGUACAUGAGGAUCACCCAUGUAUCCG [Eli x4 4.21] (Eterna round: R97, puzzle: Exclusion 4) | 28.5 nM | 17.1 nM | – | – | – | –
5 | UGAUGUUGAUAGGAUAUACAGGUAGGAGUAGGAGUAGAAGGAUCUACAUGAGGAUCACCCAUGUAGGAGUGAGA [JR_E6_Sub001] (puzzle: Exclusion 6) | – | – | 21.7 nM | 12.5 nM | 16.4 nM | –
6 | GCAUGGCGAGGAUAUACAUGAGGAUCACCCAUGUGAGAAUAAGAAGUGAGGAAGAAAAGUAGAAGGCGCUGUGG [Mat - Exclusion 3 - Mod of Salish D65] (puzzle: Exclusion 3) | – | – | 173 nM | 73.8 nM | 84.5 nM | –
7 | GCCGUUGAAGGAUAUGCUGAACUUGAGGUGCGUCCAUCCACACAUGAGGAUCACCCAUGUAGAAGGUCAACGGA [Eternabot (L2) Solution 67] (Eterna round: R97, puzzle: Exclusion 2) | 456 nM | 287 nM | – | – | – | –
8 | AUGUACCGGUGAGGAUAUUUUUAAUAGAACUUUAUGAUAUACAUGAGGAUCACCCAUGUUACUUUAAAGAAGGCAUCGGAUUAA [Mat - Exclusion NG 2 - Mod of JL - D85] (Eterna round: R96, puzzle: Exclusion NG 2) | – | – | – | – | – | 13.8 nM
9 | GGAGCAAAUGUCAGGAUAUCGUGGUCGAUAGAUCACGAGAAGGGACAUGAGGAUCACCCAUGUCAGUCCGCUCC [Mat - Exclusion 4 - Eli Mod - D58] (Eterna round: R97, puzzle: Brourd's mod of Exclusion 4) | 22 nM | 14.3 nM | – | – | – | –
10 | AUAUUUAGCUUUUUGUGAAACAUGAGGAUCACCCAUGUCCUCAUACCUGGACAUUUAAGUCUAGGAGCUCGUCUUAU [Last end dangle 2] (Eterna round: R97, puzzle: Sensor, turn-off variant 1) | 479 nM | 612 nM | – | – | – | –
11 | GGGUUGGUAGGAUAUACAUGAGGAUCACCCAUGUCAUGUCGUCGGGAAAGAUCUUUCCGUAGAAGGGCCACCCG [Eternabot (L2) Solution 52] (Eterna round: R97, puzzle: Exclusion 3) | 97 nM | 28 nM | – | – | – | –
12 | CUCUCGGUAGGAUAUCCUCCGCCGAACAUGAGGAUCACCCAUGUCACUGCCACUACGCUAGGAGAAGGGCCAGACG [Eternabot (L2) Solution 55] (Eterna round: R97, puzzle: Exclusion 5) | 81.6 nM | 85.8 nM | – | – | – | –
13 | ACAUGAGGAUCACCCAUGUGAAAAGAAUGGCUGACACAGAGAUAGGAUAUAUGUGCAUAUCAAACAUAGAAGGGUCAUAACUGG [Deportation 84 - Jieux - Exclusion NG 3] (Eterna round: R96, puzzle: Exclusion NG 3) | 28.4 nM | 30.5 nM | – | – | – | 29.4 nM
14 | UUGUUGUAUGUAGGAUAUGCAUAUUAUUAUUAUGCAGAAGGACAUGAGGAUCACCCAUGUAUGUUAUUAUUAUAUGUUAUAUAU [Title] (Eterna round: R96, puzzle: Exclusion NG 1) | – | – | – | – | – | 21.3 nM
15 | GUACUGAAGCUUUGCUUUAAUCGUACAUGAGGAUCACCCAUGUAGGAUAUGGUAGGCAAAGCUUACCAGAAGGACAGAGUGAUC [Mat - Exclusion NG 3 - Mod of JL - D67] (Eterna round: R96, puzzle: Exclusion NG 3) | 103 nM | 93.1 nM | – | – | – | 92.1 nM
16 | AGAUAGUCAGGAUAUUAGUGGUGGAGGGAUAAUUUUAUUUUUGAGAAGGGACAUGAGGAUCACCCAUGUAAUAU [JR_Ex4_Sub064] (Eterna round: R97, puzzle: Exclusion 4) | 33.3 nM | 43.5 nM | – | – | – | –
17 | GAUUAACAUGAGGAUCACCCAUGUGAGGAUAUGGACUUGCCCACUUACCCUUUAGAGUCUAGAAGGCGCAUUUC [1986#31] (Eterna round: R97, puzzle: Exclusion 1) | 23.1 nM | 20.9 nM | – | – | – | –
18 | GACCCUGCCUAGGAUAUGCAUCUGUCAGUCAGGGCAGAAGGAGGCACAUGAGGAUCACCCAUGUGACCCGGCGU [EX6 C.3] (Eterna round: R97, puzzle: Exclusion 6) | 14.6 nM | 14.5 nM | – | – | – | –
19 | UUCUGCACGCUGCGGUCCUACAUGAGGAUCACCCAUGUGGUCUGGUGGCGUGGGUCACCGGACUUGGCUCGUCUUGC [salish99_S_TOV1_R5_053] (Eterna round: R97, puzzle: Sensor, turn-off variant 1) | 20.1 nM | 21.1 nM | – | – | – | –
20 | UAUAUGUUAGGAUAUCUCGUCAUGGAGGAAACUCCAUGACGAGAGAAGGAACAUGAGGAUCACCCAUGUUUAUU [Mod of Fisker 25 - Jieux - Exclusion 4] (Eterna round: R97, puzzle: Exclusion 4) | 27.4 nM | 19 nM | – | – | – | –
21 | GCUGGUCGAGGAUAUACAUGAGGAUCACCCAUGUGGUCACGUGACUUCGGUCACGAAUGUAGAAGGCGACCAGC [E3/3-A4] (Eterna round: R97, puzzle: Exclusion 3) | 65.8 nM | 610 nM | – | – | – | –
22 | AGAUUGCGGCAAGGAUAUCUUUGUCAACUUAAAACAUGAGGAUCACCCAUGUGCAUCUUCGUGUGAGAGAAGGUGCGGCGAUCC [Raesredi] (Eterna round: R96, puzzle: Exclusion NG 2) | 1430 nM | 687 nM | – | – | – | 368 nM
23 | AACAGUCUAGAGGAUAUGUUGGAUUAAUAUCUGGCAGAAGGCUGGACAUGAGGAUCACCCAUGUAAAUACUACC [Omei Ex6 A14] (Eterna round: R97, puzzle: Exclusion 6) | 98.7 nM | 34.4 nM | – | – | – | –
24 | CCGGUAUAGGAGGAUAUAGGAGUCGAUAGACACCUAGAAGGCCUGACAUGAGGAUCACCCAUGUGUCCUACCGG [Fiskers Ex 6 - 96] (puzzle: Exclusion 6) | – | – | – | 15.9 nM | – | –
25 | CCCAUGUCAGGAUAUUAAUUGGGCGGGAAAUCCCACCCACUUGAGAAGGGACAUGAGGAUCACCCAUGUAAAAC [Indila] (Eterna round: R97, puzzle: Exclusion 4) | 66.6 nM | 629 nM | – | – | – | –
26 | GAUACACAUGAGGAUCACCCAUGUGAGGAUAUGCGUACGUUGUCCGUAGGCGACGUGCGCAGAAGGCGCGUGAG [Mat - Mod of JL D88] (puzzle: Exclusion 1) | – | – | – | 46.4 nM | – | –
